Earlier results, collected in article PMC5713020.
Values joined by “and” are separate entries in the source; they are usually repeats but may differ in a detail not shown here. Identical values can stand only once.

How the values were obtained:
[1] = target: p53 (Homo sapiens) (UniProt P04637); experiment: SPR
[2] = target: MDM4 (Homo sapiens) (UniProt O15151); experiment: SPR
[3] = target: MDM4 (Homo sapiens) (UniProt O15151); experiment: SPR (Langmuir isotherm)
[4] = target: p63 DBD (Homo sapiens) (UniProt Q9H3D4); experiment: AFS
[5] = target: p73 (Homo sapiens) (UniProt O15350); experiment: AFS
Sequence of p73 (Homo sapiens) (O15350 whole entry): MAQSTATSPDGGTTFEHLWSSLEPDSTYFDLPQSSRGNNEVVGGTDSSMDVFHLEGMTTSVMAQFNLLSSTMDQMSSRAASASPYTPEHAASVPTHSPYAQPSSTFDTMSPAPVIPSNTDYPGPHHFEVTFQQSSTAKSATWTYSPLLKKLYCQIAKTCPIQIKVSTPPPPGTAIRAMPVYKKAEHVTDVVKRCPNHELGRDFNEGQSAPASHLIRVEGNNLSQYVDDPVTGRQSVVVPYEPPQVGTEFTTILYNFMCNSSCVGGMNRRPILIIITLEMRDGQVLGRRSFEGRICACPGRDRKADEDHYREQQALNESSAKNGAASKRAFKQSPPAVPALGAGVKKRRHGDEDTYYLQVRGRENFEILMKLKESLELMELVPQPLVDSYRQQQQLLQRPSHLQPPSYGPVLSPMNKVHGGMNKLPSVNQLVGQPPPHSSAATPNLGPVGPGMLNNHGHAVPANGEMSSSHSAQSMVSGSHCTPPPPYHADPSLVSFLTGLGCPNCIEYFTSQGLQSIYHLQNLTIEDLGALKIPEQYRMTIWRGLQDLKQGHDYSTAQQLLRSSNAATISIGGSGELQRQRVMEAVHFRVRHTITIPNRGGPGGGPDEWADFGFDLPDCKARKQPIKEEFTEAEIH

Sequence of MDM2 (Q00987 whole entry): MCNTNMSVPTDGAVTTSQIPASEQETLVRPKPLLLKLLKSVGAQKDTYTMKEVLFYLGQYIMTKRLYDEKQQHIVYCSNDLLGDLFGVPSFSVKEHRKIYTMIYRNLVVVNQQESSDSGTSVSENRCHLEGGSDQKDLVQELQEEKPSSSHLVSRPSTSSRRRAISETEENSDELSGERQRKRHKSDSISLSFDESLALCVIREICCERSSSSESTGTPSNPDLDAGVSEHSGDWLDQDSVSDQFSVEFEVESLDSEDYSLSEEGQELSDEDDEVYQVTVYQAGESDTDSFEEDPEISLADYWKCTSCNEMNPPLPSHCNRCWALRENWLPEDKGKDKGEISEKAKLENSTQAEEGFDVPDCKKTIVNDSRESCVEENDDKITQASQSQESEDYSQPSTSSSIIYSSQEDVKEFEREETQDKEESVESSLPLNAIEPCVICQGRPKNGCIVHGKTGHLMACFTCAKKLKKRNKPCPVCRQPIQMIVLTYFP
Sequence of MDM4 (Homo sapiens) (O15151 whole entry): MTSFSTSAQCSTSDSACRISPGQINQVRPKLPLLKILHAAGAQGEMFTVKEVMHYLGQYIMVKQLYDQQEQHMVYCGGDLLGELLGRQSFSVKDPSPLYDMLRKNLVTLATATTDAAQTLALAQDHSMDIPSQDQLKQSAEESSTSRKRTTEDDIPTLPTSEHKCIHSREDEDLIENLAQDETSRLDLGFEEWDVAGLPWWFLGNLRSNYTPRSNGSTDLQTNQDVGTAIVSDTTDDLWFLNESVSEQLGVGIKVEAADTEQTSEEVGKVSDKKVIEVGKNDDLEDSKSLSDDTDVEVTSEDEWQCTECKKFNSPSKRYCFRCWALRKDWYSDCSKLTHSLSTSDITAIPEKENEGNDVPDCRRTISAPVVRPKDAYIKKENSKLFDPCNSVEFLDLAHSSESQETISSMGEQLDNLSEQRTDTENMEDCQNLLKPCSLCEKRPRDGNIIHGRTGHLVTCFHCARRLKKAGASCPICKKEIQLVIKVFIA
Sequence of p28 p28 peptide (P00282 70-97): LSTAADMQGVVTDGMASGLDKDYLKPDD
Sequence of p53 (Homo sapiens) (P04637 whole entry): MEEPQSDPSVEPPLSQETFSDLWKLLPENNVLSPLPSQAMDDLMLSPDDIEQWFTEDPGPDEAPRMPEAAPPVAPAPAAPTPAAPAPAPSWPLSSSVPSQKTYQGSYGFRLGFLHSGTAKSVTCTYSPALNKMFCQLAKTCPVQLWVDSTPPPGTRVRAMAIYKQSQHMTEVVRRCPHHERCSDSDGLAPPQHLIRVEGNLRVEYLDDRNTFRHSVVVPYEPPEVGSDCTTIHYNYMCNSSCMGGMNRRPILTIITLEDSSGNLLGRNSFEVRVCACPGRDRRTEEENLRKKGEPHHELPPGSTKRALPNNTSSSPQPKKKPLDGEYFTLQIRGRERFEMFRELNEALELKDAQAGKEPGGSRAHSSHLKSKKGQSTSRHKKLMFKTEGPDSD
Sequence of Azurin (P00282 21-148): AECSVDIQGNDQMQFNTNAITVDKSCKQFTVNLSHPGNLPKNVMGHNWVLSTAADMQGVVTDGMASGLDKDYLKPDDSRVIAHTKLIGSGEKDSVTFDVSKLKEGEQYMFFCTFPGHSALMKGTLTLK
Sequence of p63 DBD (Homo sapiens) (Q9H3D4 166-362): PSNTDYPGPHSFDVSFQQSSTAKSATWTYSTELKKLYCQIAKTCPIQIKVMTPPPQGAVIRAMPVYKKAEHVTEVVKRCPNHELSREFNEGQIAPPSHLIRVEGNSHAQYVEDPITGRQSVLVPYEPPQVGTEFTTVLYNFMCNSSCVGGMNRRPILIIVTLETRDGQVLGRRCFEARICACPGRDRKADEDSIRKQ

For Azurin (from UniProt P00282), the Kd [1] is listed as 1300 nM and 1200 nM.

In the case of MDM2 (from UniProt Q00987), the Kd [2] is listed as 390 nM and the Kd [3] is listed as 1000 nM.

For p28 p28 peptide (from UniProt P00282), the Kd [4] is given as 1000 nM and the Kd [5] is given as 100 nM.
